Experimental data from US20090311265A1 (CRUCELL HOLLAND B V, published 2009).

Tests used:
[1] = target: recombinant HA, subtype H3 (A/Wyoming/3/2003(H3N2)) (influenza A virus A/Wyoming/3/2003 …); assay: ELISA, coated HA, IgG 5 µg/ml
[2] = target: T1, recombinant HA, subtype H5 (A/Vietnam/1203/2004 (H5N1)) (influenza A virus A/Vietnam/1203/2004 …, UniProt Q80A26 6-554); assay: ELISA, coated HA, IgG 5 µg/ml
[3] = target: recombinant HA, subtype H1 (A/New Caledonia/20/99 (H1N1)) (influenza A virus A/New Caledonia/20/99 …, UniProt Q289M7 18-565); assay: ELISA, coated HA, IgG 5 µg/ml
[4] = target: T1, recombinant HA, subtype H5 …; assay: competition ELISA on coated HA, IgG 10 µg/ml, competitor: phage antibodies
[5] = target: full-length HA from isolate A/Vietnam/1194/2004 (H5N1TV) on PER.C6 cells (influenza A virus A/Vietnam/1194/2004 …, UniProt Q80A26 6-554); assay: flow cytometry, transfected PER.C6 cells
[6] = target: soluble recombinant HA (sHA) of H5N1TV (influenza A virus A/Vietnam/1194/2004 …, UniProt Q6J8F6 17-528); assay: immunoblot (data not shown)

Binder	OD 492 nm [1] [OD 492 nm]	OD 492 nm [2] [OD 492 nm]	OD 492 nm [3] [OD 492 nm]	residual binding of phage antibody in the presence of the IgG [4] [%]	flow cytometry signal at 0.1 µg/ml [5]	flow cytometry signal at 1 µg/ml [5]	flow cytometry signal at 10 µg/ml [5]	binding result [6]
CR6272 (antibody, V domains shown) VH: QMQLVQSGAEVKKPGSSVKVSCKASGGTFSSYAITWVRQAPGQGLEWMGGIIGMFGSTNYAQNFQGRVTITADESTSTAYMELSSLRSEDTAVYYCARSTGYYPAYLHHWGQGTLVTVSS VL: QSALTQPRSVSGSPGQSVTISCTGTSSDVGGYNYVSWYQQHPGKAPKLMIYDVSKRPSGVPDRFSGSKSGNTASLTISGLQAEDEADYYCSSYTSSSTHVFGTGTKVTVLG	0.07	0.58	0.81	> 25	–	–	–	–
CR6314 (antibody, V domains shown) VH: EVQLVESGAEVKKPGSSVKVSCKASGGPFRSYAISWVRQAPGQGPEWMGGIIPIFGTTKYAPKFQGRVTITADDFAGTVYMELSSLRSEDTAMYYCAKHMGYQVRETMDVWGKGTTVTVSS VL: SYVLTQPPSASGTPGQRVTISCSGSSSNIGSNYVYWYQQLPGTAPKLLIYRDGQRPSGVPDRFSGSKSGTSASLAISGLRSDDEADYYCATWDDNLSGPVFGGGTKLTVLG	0.07	1.48	1.93	–	44.5	167	400	–
CR6339 (antibody, V domains shown) VH: EVQLVESGAEVKKPGSSVKVSCKASGGIFNSYAISWVRQAPGQGLEWMGGIIAIFHTPKYAQKFQGRVTITADESTNTAYMELRSLKSEDTALYYCARGSTYDFSSGLDYWGQGTLVTVSS VL: QAGLTQPPSVSVAPGQTARITCGGNNIGSKSVHWYQQKPGQAPVLVVYDDSDRPSGIPERFSGSNSGNTATLTISRVEAGDEADYYCQVWDSSSDHVVFGGGTKLTVLG	0.07	0.81	–	> 25	–	–	–	–
CR6344 (antibody, V domains shown) VH: QVQLVQSGAEVKKPGSSVRVSCKASGSIFRNYAMSWVRQAPGQGLEWMGGIIAIFGTPKYAQKFQGRVTITADESTSTVYMELSGLRSEDTAMYYCARIPHYNFGSGSYFDYWGQGTLVTVSS VL: TVLTQPPSVSGAPGQRVTISCTGSSSNIGAGYDVHWYQQLPGTAPKLLIYGNSNRPSGVPDRFSGSKSGTSATLGITGLQTGDEADYYCGTWDSSLSAYVFGTGTKVTVLG	0.09	1.31	1.8	–	107	328	768	–
CR6257 (antibody, V domains shown) VH: QVQLVQSGAEVKKPGSSVKVSCKASGGPFRSYAISWVRQAPGQGPEWMGGIIPIFGTTKYAPKFQGRVTITADDFAGTVYMELSSLRSEDTAMYYCAKHMGYQVRETMDVWGKGTTVTVSS VL: QSALTQPAAVSGSPGQSITISCTGTSSDVGGYNYVSWYQQHPGKAPKLMIYEVSNRPSGVSNRFSGSKSGNTASLTISGLQAEDEADYYCSSYTSSSTYVFGTGTKVTVLG	0.08	1.37	1.93	–	62.1	284	365	–
CR6141 (antibody, V domains shown) VH: EVQLVQSGAEVKKPGASVKVSCKASGYTFTGYYVYWVRQAPGQGLEWMGWISAYNGNTNYAQKFQGRVTITADKSTSTAYMELSSLRSEDTAVYYCARSRSLDVWGQGTTVTVSS VL: not shown	–	–	–	–	–	–	–	binds
CR6296 (antibody, V domains shown) VH: EVQLVETGAEVKKPGASVKVSCKASGYTFTSYYMHWVRQAPGQGLEWMGWINPNSGGTNYAQKFQGRVTMTRDTSISTAYMELSRLRSDDTAVYYCAREGKWGPQAAFDIWGQGTMVTVSS VL: EIVMTQSPGTLSLSPGERATLSCRASQSVSSSYLAWYQQKPGQAPRLLIYDASSRATDIPDRFSGSGSGTDFTLTISRLEPEDFAVYYCQQYGSSLWTFGQGTKVEIKR	–	–	–	–	–	–	–	binds
CR6301 (antibody, V domains shown) VH: EVQLVESGGGLVQPGGSLRLSCAASGFTFSIYAMSWVRQAPGKGLEWVSAISSSGDSTYYADSVKGRFTISRDNARNTLYLQMNSLRAEDTAVYYCARAYGYTFDPWGQGTLVTVSS VL: not shown	–	–	–	–	–	–	–	binds
